Test results as given in paper PMC6100724, “Proteome‐wide analysis of phospho‐regulated PDZ domain interactions” (Molecular Systems Biology, 2018).

B1: RPS6KA2 S730E: Flag‐tagged full-length RPS6KA2 phosphomimetic mutant expressed in HEK293 cells (protein)
chain: MDLSMKKFAVRRFFSVYLRRKSRSKSSSLSRLEEEGVVKEIDISHHVKEGFEKADPSQFELLKVLGQGSYGKVFLVRKVKGSDAGQLYAMKVLKKATLKVRDRVRSKMERDILAEVNHPFIVKLHYAFQTEGKLYLILDFLRGGDLFTRLSKEVMFTEEDVKFYLAELALALDHLHSLGIIYRDLKPENILLDEEGHIKITDFGLSKEAIDHDKRAYSFCGTIEYMAPEVVNRRGHTQSADWWSFGVLMFEMLTGSLPFQGKDRKETMALILKAKLGMPQFLSGEAQSLLRALFKRNPCNRLGAGIDGVEEIKRHPFFVTIDWNTLYRKEIKPPFKPAVGRPEDTFHFDPEFTARTPTDSPGVPPSANAHHLFRGFSFVASSLIQEPSQQDLHKVPVHPIVQQLHGNNIHFTDGYEIKEDIGVGSYSVCKRCVHKATDTEYAVKIIDKSKRDPSEEIEILLRYGQHPNIITLKDVYDDGKFVYLVMELMRGGELLDRILRQRYFSEREASDVLCTITKTMDYLHSQGVVHRDLKPSNILYRDESGSPESIRVCDFGFAKQLRAGNGLLMTPCYTANFVAPEVLKRQGYDAACDIWSLGILLYTMLAGFTPFANGPDDTPEEILARIGSGKYALSGGNWDSISDAAKDVVSKMLHVDPHQRLTAMQVLKHPWVVNREYLSPNQLSRQDVHLVKGAMAATYFALNRTPQAPRLEPVLSSNLAQRRGMKRLTETRL
modifications: left off: 3xFlag, end not stated, kept
notes: Flag‐tagged full-length RPS6KA2 phosphomimetic mutant expressed in HEK293 cells
B2: Flag‐tagged RPS6KA1: Flag‐tagged full-length wild-type RPS6KA1 expressed in HEK293 cells (protein, UniProt Q15418 1-735, looked up)
chain: MPLAQLKEPWPLMELVPLDPENGQTSGEEAGLQPSKDEGVLKEISITHHVKAGSEKADPSHFELLKVLGQGSFGKVFLVRKVTRPDSGHLYAMKVLKKATLKVRDRVRTKMERDILADVNHPFVVKLHYAFQTEGKLYLILDFLRGGDLFTRLSKEVMFTEEDVKFYLAELALGLDHLHSLGIIYRDLKPENILLDEEGHIKLTDFGLSKEAIDHEKKAYSFCGTVEYMAPEVVNRQGHSHSADWWSYGVLMFEMLTGSLPFQGKDRKETMTLILKAKLGMPQFLSTEAQSLLRALFKRNPANRLGSGPDGAEEIKRHVFYSTIDWNKLYRREIKPPFKPAVAQPDDTFYFDTEFTSRTPKDSPGIPPSAGAHQLFRGFSFVATGLMEDDGKPRAPQAPLHSVVQQLHGKNLVFSDGYVVKETIGVGSYSECKRCVHKATNMEYAVKVIDKSKRDPSEEIEILLRYGQHPNIITLKDVYDDGKHVYLVTELMRGGELLDKILRQKFFSEREASFVLHTIGKTVEYLHSQGVVHRDLKPSNILYVDESGNPECLRICDFGFAKQLRAENGLLMTPCYTANFVAPEVLKRQGYDEGCDIWSLGILLYTMLAGYTPFANGPSDTPEEILTRIGSGKFTLSGGNWNTVSETAKDLVSKMLHVDPHQRLTAKQVLQHPWVTQKDKLPQSQLSHQDLQLVKGAMAATYSALNSSKPTPQLKPIESSILAQRRVRKLPSTTL
modifications: full-length Flag tag
notes: Flag‐tagged full-length wild-type RPS6KA1 expressed in HEK293 cells

How the values were obtained:
[1] = test system: GFP‐tagged full‐length Scribble; test: Co-immunoprecipitation in HEK293 cells; assay type: binding, human; conditions: transient expression in HEK293 cells; anti‐Flag beads; anti‐Flag and anti‐GFP detection
From the text: (§1) pDONR223‐RPS6KA2 (Johannessen et al, 2010) was a gift from William Hahn & David Root (Addgene plasmid # 23530). The gene was PCR‐amplified introducing HindIII and EcoRI restriction sites along with the C‐terminal phosphomimetic (S730E) or phosphoinhibiting (S730A) mutations, or the PDZbm deletion (T731‐L733). pKH3‐human RSK1 was a gift from John Blenis (Addgene plasmid # 13841; Richards et al, 2001). The gene was PCR‐amplified introducing HindIII and EcoRI restriction sites, and a and PDZbm deletion (T733‐L735) was generated. The genes (wild type and mutants) were cloned into 3xFlag CMV‐10 vector and subjected to Sanger sequencing. […]
(§2) The plasmids encoding 3xFlag RPS6KA2 wild type and mutants thereof, 3xFlag RPS6KA1 and mutants thereof, and GFP‐tagged full‐length human Scribble (Navarro et al, 2005) were Midipreped using PureLink HiPure Plasmid Midiprep Kit (Invitrogen). […] The membranes were immunoblotted with anti‐Flag (ab1162; Abcam), anti‐GFP (ab6556; Abcam), and anti‐actin (ab1801; Abcam) primary antibodies followed by HRP‐conjugated anti rabbit secondary antibody (Life technologies) and detected with Amersham ECL Western Blotting Detection Reagent (GE Healthcare), and exposed to high‐performance chemiluminescence film (Amersham Hyperfilm ECL; GE Healthcare) for 30–180 s and developed and fixed using GBX developer and fixer (Carestream Dental).

[2] = test system: GST‐tagged Scribble PDZ1; test: GST-pulldown from HEK293 lysates with GST-tagged Scribble PDZ1; assay type: binding, human; conditions: Flag‐tagged full-length protein over-expressed in HEK293 cells; anti‐Flag detection
From the text: as §1, §2

| Molecule | co‐IP with GFP‐tagged full‐length Scribble [1] | GST‐pulldown with GST‐tagged Scribble PDZ1 [2] |
| --- | --- | --- |
| B1 | strong co‐IP | confirmed an interaction |
| B2 | – | interaction was further confirmed |
